Experimental data: patent US20130261049A1, “ALPHABODIES SPECIFICALLY BINDING TO CLASS-I VIRAL FUSION PROTEINS AND METHODS FOR PRODUCING THE SAME” (priority 2011, published 2013)
Where two headings read alike, the source gives them in different places.

Legend:
[1] = system: HIV strain HXB2 in MT4-X4 cells; assay: microbe, parasite or virus in culture; conditions: read-out: 50% inhibition concentration (IC50)
Text: The virus used in this assay was the laboratory adapted reference strain HXB2 virus using CXCR4 as co-receptor. Cells were infected with 100 TCID50/ml of virus in the presence of three-fold dilutions of Alphabody starting at 2.5 microM. […] MTT is reduced to formazan by living cells. Solubilization of the formazan crystals results in a colored product that can be measured by spectrophotometry at 540 nm. The cellular toxicity of the Alphabodies was monitored in the same assay using the same read-out, i.e. cell survival. As controls, the clinically approved T20 peptide (Fuzeon®, Roche) was used, as well as the CXCR4 antagonist, AMD3100 (Mozobile™, Genzyme).

HIV strain HXB2 in PBMC = assay: microbe, parasite or virus in culture; conditions: read-out: 50% inhibition concentration (IC50)
Description: PBMC were infected with 4000 TCID50/ml of virus and added to serial dilutions of scAB_C2 starting at 2 microM. After 7 days, the amplification of the virus in absence and presence of scAB_C2 was monitored by measuring the viral p24 concentration. The maximal p24 concentration was measured when PBMC and virus were incubated without inhibitory molecules and was set at 100% viral amplification. As controls, the clinically approved T20 (Fuzeon®, Roche) was used, as well as the CXCR4 antagonist, AMD3100 (Mozobile™, Genzyme).

[2] = molecular target: HIV-1 gp41 HR2-derived biotinylated peptide C36 (HIV-1 HXB2); assay: ELISA, biotinylated peptide on streptavidin plates, sigmoid fit (apparent KD)
[3] = Aggregation tendency (visual inspection, OD 340 nm, SEC profiles, SDS-PAGE); type: physicochemical; conditions: concentration ranges tested, typically up to 1 μM
Description: (§1) However, for these constructs, subcloning of synthetic genes was performed in the pET16b vector (Novagen), instead of in pET22b, in order to have an N-terminal 10-histidine tag.
as §1

[4] = CD thermal denaturation scan in GuHCl; type: physicochemical; conditions: CD at 222 nm, 11 microM protein in 5 M GuHCl
Description: This coding sequence was subcloned into the pET22b vector (Novagen). […] The resulting construct was transformed into the host E. coli strain BL21(DE3) harboring a chromosomal copy of the T7 polymerase gene under control of the lacUV5 promoter (DE3 lysogen). Transformed cells were grown in medium supplemented with ampicillin and protein expression was induced by the addition of IPTG to exponentially growing cultures. Cells containing the expressed Alphabodies were collected by centrifugation and the pellets were resuspended in 50 mM Tris, 500 mM NaCl, pH 7.8. Cells were then disrupted by sonication and spun down for cell debris removal. The cleared supernatants were applied onto a HITrap IMAC HP column (GE Healthcare) loaded with Ni^2+ ions. Bound proteins were eluted by applying an imidazole gradient from 5 to 1000 mM. Alphabody-containing fractions were pooled, concentrated and loaded on a Superdex 75 size exclusion chromatography (SEC) column (GE Healthcare). During this final purification step, the buffer was changed to 50 mM Tris, 150 mM NaCl, pH 7.8.

[5] = MT4-X4 cells, HXB2 virus, 5 day, cell survival by MTT
[6] = PBMC, HXB2 virus, 7 day, viral p24

c1cc(CN2CCCNCCNCCCNCC2)ccc1CN1CCCNCCNCCCNCC1 [AMD3100]
IC50 ([1]; Human immunodeficiency virus 1, HXB2, 120 h): 54 nM
IC50 (HIV strain HXB2 in PBMC; Human immunodeficiency virus 1, HXB2, PBMC, 168 h): 97 nM

enfuvirtide
IC50 [1, 5]: 6 nM
IC50 (HIV strain HXB2 in PBMC; [6]): 60 nM

B1: Alphabody scAB013_C2 with C-terminal Leu-Glu-(His)6 tag (designed binder)
chain: MSIEEIQKQIAAIQKQIAAIQKQIYRMTGGSSGGSMQMYTIQIQILIIQAQIQQIQNQIELMTLGGSSGGMSIEEIQKQIAAIQKQIAAIQKQIYRMTPLEHHHHHH
Kd [2]: > 10000 nM

B2: scAB_Bis: optimized bispecific single-chain Alphabody binding gp41 HR2 and N-trimer, SEQ ID No: 78 (protein)
chain: MGHHHHHHHHHHSSHIEGRHGSAIQQIQKAIATIQKAIAWIQKKIYMITGGSGGSGGDMAMYAIQIAILIIQAQIQQIQNEIALMTLGSGGGGSGGDIQQIQKQIVAIMKQIVAIVKQISAITP
modifications: Alphabody helix sequence scAB_Bis
tendency to aggregate [3]: None of the three Alphabodies showed tendency to aggregate

B3: scAB013_C2mut: monofunctional control of scAB_Bis with B-helix mutations only, SEQ ID No: 80 (protein)
chain: MGHHHHHHHHHHSSHIEGRHMSIEEIQKQIAAIQKQIAAIQKQIYRMTGGSGGSGGDMAMYAIQIAILIIQAQIQQIQNEIALMTLGSGGGGSGMSIEEIQKQIAAIQKQIAAIQKQIYRMTP
modifications: Alphabody helix sequence scAB013_C2mut
tendency to aggregate [3]: None of the three Alphabodies showed tendency to aggregate

B4: scAB013_C2: gp41 HR2-mimicking Alphabody, SEQ ID No: 69, expressed with C-terminal (His)6 tag (protein)
chain: MSIEEIQKQIAAIQKQIAAIQKQIYRMTGGSSGGSMQMYTIQIQILIIQAQIQQIQNQIELMTLGGSSGGMSIEEIQKQIAAIQKQIAAIQKQIYRMTP
modifications: C-terminal His6 tag; Alphabody ′scAB013_C2′ sequence
transition temperature Tm [4]: 72 °C
IC50 [1, 5]: 62 nM
IC50 (HIV strain HXB2 in PBMC; [6]): 218 nM

B5: scAB_RsvC2: Alphabody with grafted HRSV HR2-like B-helix, SEQ ID No: 75 (protein)
chain: MSIEEIQKQIAAIQKQIAAIQKQIYRMTGGSGGSGGDVQIKIIQSQIYIIQSDILLIQAQISRMTGSGGGGSGMSIEEIQKQIAAIQKQIAAIQKQIYRMTP
modifications: Alphabody ′scAB_RsvC2′ sequence
tendency to aggregate [3]: None of the three Alphabodies showed tendency to aggregate

B6: scAB_RsvN2: Alphabody with grafted HRSV N-trimer-like binding groove, SEQ ID No: 72 (protein)
chain: SAAIESTQQAIASIQNAIAVIQQKIYDLTGGSGGSGGMSIEEIQKQIAAIQKQIAAIQKQIYRMTGSGGGGSGMSLLEINKQVVAISQQISAITKQILRMKNTP
modifications: Alphabody ′scAB_RsvN2′ sequence
tendency to aggregate [3]: None of the three Alphabodies showed tendency to aggregate

B7: scAB_RsvN1: Alphabody with grafted HRSV N-trimer-like binding groove, SEQ ID No: 71 (protein)
chain: SAEIQKIQSAIASTQQAIASLQNAIYVFTGGSGGSGGMSIEEIQKQIAAIQKQIAAIQKQIYRMTGSGGGGSGMSINEIKKQLLAINKQVVAIAQQVSAMSPSR
modifications: Alphabody ′scAB_RsvN1′ sequence
tendency to aggregate [3]: None of the three Alphabodies showed tendency to aggregate

B8: scAB_Env03mut: monofunctional control of scAB_Bis with A- and C-helix mutations only, SEQ ID No: 79 (protein)
chain: MGHHHHHHHHHHSSHIEGRHGSAIQQIQKAIATIQKAIAWIQKKIYMITGGSGGSGGGSIEEIQKQIAAIQKQIAAIQKQIYAITGSGGGGSGGDIQQIQKQIVAIMKQIVAIVKQISAITP
modifications: Alphabody helix sequence scAB_Env03mut
tendency to aggregate [3]: None of the three Alphabodies showed tendency to aggregate
